The chains are these.
B1: Regulatory protein NPR1 (Arabidopsis thaliana (Mouse-ear cress)), P93002 (parent)
chain: MDTTIDGFADSYEISSTSFVATDNTDSSIVYLAAEQVLTGPDVSALQLLSNSFESVFDSPDDFYSDAKLVLSDGREVSFHRCVLSARSSFFKSALAAAKKEKDSNNTAAVKLELKEIAKDYEVGFDSVVTVLAYVYSSRVRPPPKGVSECADENCCHVACRPAVDFMLEVLYLAFIFKIPELITLYQRHLLDVVDKVVIEDTLVILKLANICGKACMKLLDRCKEIIVKSNVDMVSLEKSLPEELVKEIIDRRKELGLEVPKVKKHVSNVHKALDSDDIELVKLLLKEDHTNLDDACALHFAVAYCNVKTATDLLKLDLADVNHRNPRGYTVLHVAAMRKEPQLILSLLEKGASASEATLEGRTALMIAKQATMAVECNNIPEQCKHSLKGRLCVEILEQEDKREQIPRDVPPSFAVAADELKMTLLDLENRVALAQRLFPTEAQAAMEIAEMKGTCEFIVTSLEPDRLTGTKRTSPGVKIAPFRILEEHQSRLKALSKTVELGKRFFPRCSAVLDQIMNCEDLTQLACGEDDTAEKRLQKKQRYMEIQETLKKAFSEDNLELGNSSLTDSTSSTSKSTGGKRSNRKLSHRRR
partner: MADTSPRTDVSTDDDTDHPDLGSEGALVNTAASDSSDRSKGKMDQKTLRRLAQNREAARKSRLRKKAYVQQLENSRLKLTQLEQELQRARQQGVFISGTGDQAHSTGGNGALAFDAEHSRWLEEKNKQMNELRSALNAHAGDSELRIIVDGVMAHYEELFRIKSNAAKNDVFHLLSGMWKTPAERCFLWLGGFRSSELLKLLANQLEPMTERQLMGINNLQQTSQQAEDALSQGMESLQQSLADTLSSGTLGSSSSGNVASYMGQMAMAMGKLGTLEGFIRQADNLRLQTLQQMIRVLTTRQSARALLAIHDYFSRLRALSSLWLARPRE

One variant from IntAct's records for PubMed 18571510 can be followed below.

The variants in this experiment derive from B1. To be noted: with tga2_arath TGA2, P43273.
C150Y: the “effect of a mutation on the interaction” value is on record as “disrupting interaction”.
